# Source: patent US20200362034A1 (KINDRED BIOSCIENCES, published 2020)
# B1: GLP1-G8/GLP1-2G_III_VARfeIgG2 (Fc fusion)
# chain: HGEGTFTSDVSSYLEGQAAKEFIAWLVKGGGGSGGGGSGGGGSGGGGSPKTASTIESKTGECPKCPVPEIPGAPSVFIFPPKPKDTLSISRTPEVTCLVVDLGPDDSNVQITWFVDNTEMHTAKTRPREEQFNSTYRVVSVLPILHQDWLKGKEFKCKVNSKSLPSAMERTISKAKGQPHEPQVYVLPPTQEELSENKVSVTCLIKGFHPPDIAVEWEITGQPEPENNYQTTPPQLDSDGTYFLYSRLSVDRSHWQRGNTYTCSVSHEALHSHHTQKSLTQSPGKGGGGSGGGGHAEGTFTSDVSSYLEGQAAKEFIAWLVKGGG
# B2: GLP1-G8_I_VARfeIgG2 (Fc fusion)
# chain: HGEGTFTSDVSSYLEGQAAKEFIAWLVKGGGGSGGGGSGGGGSGGGGSPKTASTIESKTGECPKCPVPEIPGAPSVFIFPPKPKDTLSISRTPEVTCLVVDLGPDDSNVQITWFVDNTEMHTAKTRPREEQFNSTYRVVSVLPILHQDWLKGKEFKCKVNSKSLPSAMERTISKAKGQPHEPQVYVLPPTQEELSENKVSVTCLIKGFHPPDIAVEWEITGQPEPENNYQTTPPQLDSDGTYFLYSRLSVDRSHWQRGNTYTCSVSHEALHSHHTQKSLTQSPGK
# notes: Formula I contiguous polypeptide made in CHO cells; The Fc chains pair through hinge disulfides; also called GLP1 MB variant; GLP1-B
# Columns and labels:
# [1] = molecular target: human glucagon ligand peptide-1 receptor (GLP1R) (human, UniProt P43220 24-463); test: cell-based or functional assay
# [2] = molecular target: FeGLP1R-N-huFc_PolyHis (feline, biotinylated (sites not given) in the Octet assay); test: biolayer interferometry (Octet); biotinylated FeGLP1R-N-huFc_PolyHis on streptavidin tips; 1:1 fit
# Procedure: Briefly, FeGLP1R-N-huFc_PolyHis was biotinylated, the free unreacted biotin was removed, and the biotinylated protein was captured to streptavidin sensor tips. […] Dissociation was monitored for 600 seconds. A buffer only blank curve was subtracted to correct for any drift. […] The buffer for dilutions and all binding steps was: 20 mM phosphate, 150 mM NaCl, pH 7.2.
# Chain of FeGLP1R-N-huFc_PolyHis (feline, biotinylated (sites not given) in the Octet assay) (chain, as listed by the source): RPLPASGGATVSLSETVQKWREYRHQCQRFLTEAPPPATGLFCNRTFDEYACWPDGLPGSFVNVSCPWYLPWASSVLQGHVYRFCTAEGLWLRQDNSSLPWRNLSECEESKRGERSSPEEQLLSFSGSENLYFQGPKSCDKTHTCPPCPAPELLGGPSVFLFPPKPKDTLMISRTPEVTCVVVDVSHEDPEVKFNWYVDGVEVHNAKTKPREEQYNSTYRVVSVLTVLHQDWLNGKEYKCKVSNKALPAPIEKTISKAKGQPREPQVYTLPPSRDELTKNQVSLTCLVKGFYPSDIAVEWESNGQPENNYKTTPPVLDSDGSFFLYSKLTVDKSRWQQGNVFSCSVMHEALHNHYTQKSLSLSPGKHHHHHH
binder,measurement,setting,value
B1,"EC 50 (nM), cAMP Hunter bioassay on CHO-K1 cells overexpressing human GLP1R",[1],0.0175 nM
B2,"EC 50 (nM), cAMP Hunter bioassay on CHO-K1 cells overexpressing human GLP1R",[1],0.0281 nM
same,Kd,[2],8 to 16 nM
